According to publication doi:10.1101/2024.11.01.621267:

Target: recombinant full-length RACK1 protein (ITC) (human) (UniProt P63244)
Assay: ITC; LARP4 peptide (400 μM; 300 μM for 600–625) injected into RACK1 (40 μM; 30 μM) in the cell; iTC200; 298K; 20 mM HEPES, 300 mM NaCl, 10% glycerol, 1 mM DTT pH 7.5; triplicate

Kd: 2100 nM
dH: -8.6 kcal/mol
stoichiometry N: 0.9
Substance: HsLARP4 peptide 612–637 (from UniProt Q71RC2-1 612-637)
